Measurements published in patent publication US20070131547A1.

Columns and labels:
Test in all cases: cell-based or functional assay
[1] = molecular target: goxDp-Dzip2 (diaphorase derived from Gluconobacter oxydans, Dzip2 association site fused at the C-terminal side) (Gluconobacter oxydans)
[2] = molecular target: T1, goxALDH-Dzip2 (aldehyde dehydrogenase derived from Gluconobacter oxydans, Dzip2 association site fused at the C-terminal side) (Gluconobacter oxydans)
T1 sequence: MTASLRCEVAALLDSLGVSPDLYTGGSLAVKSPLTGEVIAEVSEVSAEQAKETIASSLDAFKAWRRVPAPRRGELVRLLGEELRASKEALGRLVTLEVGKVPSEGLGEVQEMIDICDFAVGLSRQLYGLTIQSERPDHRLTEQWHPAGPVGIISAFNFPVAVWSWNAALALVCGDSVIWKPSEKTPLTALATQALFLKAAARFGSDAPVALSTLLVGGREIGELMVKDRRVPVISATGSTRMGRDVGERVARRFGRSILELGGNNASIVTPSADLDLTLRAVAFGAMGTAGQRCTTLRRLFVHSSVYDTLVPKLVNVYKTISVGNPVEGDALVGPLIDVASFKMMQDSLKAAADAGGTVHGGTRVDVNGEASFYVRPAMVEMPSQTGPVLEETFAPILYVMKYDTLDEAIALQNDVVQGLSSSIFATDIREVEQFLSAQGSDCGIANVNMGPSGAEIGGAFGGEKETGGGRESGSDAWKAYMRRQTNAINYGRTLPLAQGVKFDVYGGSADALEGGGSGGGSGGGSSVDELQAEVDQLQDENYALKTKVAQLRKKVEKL

[3] = molecular target: ppuDp-Jun (diaphorase derived from Pseudomonas putida, Jun association site fused at the C-terminal side) (Pseudomonas putida)
[4] = molecular target: T2, ecoISO-Dzip2 (xylose isomerase derived from Escherichia coli, Dzip2 association site fused at the C-terminal side) (Escherichia coli) (UniProt B1X8I1)
T2 sequence: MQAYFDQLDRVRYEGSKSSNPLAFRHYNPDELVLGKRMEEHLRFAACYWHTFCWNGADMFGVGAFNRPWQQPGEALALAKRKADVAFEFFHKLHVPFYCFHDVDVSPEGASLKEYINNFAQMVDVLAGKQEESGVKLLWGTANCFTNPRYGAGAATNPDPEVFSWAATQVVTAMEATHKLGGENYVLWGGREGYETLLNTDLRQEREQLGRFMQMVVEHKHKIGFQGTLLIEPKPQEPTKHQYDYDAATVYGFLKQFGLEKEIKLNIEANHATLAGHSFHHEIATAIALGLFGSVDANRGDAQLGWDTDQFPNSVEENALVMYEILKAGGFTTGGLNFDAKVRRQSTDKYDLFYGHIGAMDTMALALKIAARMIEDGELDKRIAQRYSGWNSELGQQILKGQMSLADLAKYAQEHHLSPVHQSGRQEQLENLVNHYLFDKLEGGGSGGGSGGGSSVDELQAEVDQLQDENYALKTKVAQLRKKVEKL

[5] = molecular target: phoDp-Jun (diaphorase derived from Pyrococcus horikoshii, Jun association site fused at the C-terminal side) (Pyrococcus horikoshii)

B1: His-ppuMDH-Dzip1 (malic acid dehydrogenase derived from Pseudomonas putida, His tag, Dzip1 association site fused at the C-terminal side) (enzyme)
chain: MGSSHHHHHHSQDPSDLKTAALEYHAQPRPGKLSVELSKPTATARDLALAYSPGVAEPVREIGRDPELAYKYTGKGNLVAVISDGTAILGLGDLGPLASKPVMEGKGVLFKRFAGIDVFDIEVESESPQAFIDTVRRISITFGGINLEDIKAPECFEIERTLIEQCDIPVFHDDQHGTAIVTAAGMINALEIAGKKLEEAKIVCLGAGAAAISCMKLLVSMGAKVENIFMIDRSGVIHAGRDDLNQYKAQFAHATDKRTLADALDGADVFVGLSGPNLLSPEGLKSMAANPIVFACSNPDPEISPELAHATRNDVIMATGRSDYPNQVNNVLGFPFIFRGALDVRAKRINEEMKIAAAIALKDLAKLPVPKEVCEAYGVEGLEFGREYIIPKPLDARLITVVSDAVAKAAIESGVATLPYPKHYPLTSVDEVFNGKLGGGSGGGSGGGSTVAQLEEKVKTLRAQNYELKSRVQRLREQVAQLA
Binder B1 has a maximum electric power (malic acid fuel cell) [1] of 99 µW/cm^2 and a shortcircuit current density (malic acid fuel cell) [1] of 1030 µA/cm^2.

B2: His-sceADH-Dzip1 (alcohol dehydrogenase derived from Saccharomyces cerevisiae, His tag, Dzip1 association site fused at the C-terminal side) (enzyme)
chain: MGSSHHHHHHSQDPPSQVIPEKQKAIVFYETDGKLEYKDVTVPEPKPNEILVHVKYSGVCHSDLHAWHGDWPFQLKFPLIGGHEGAGVVVKLGSNVKGWKVGDFAGIKWLNGTCMSCEYCEVGNESQCPYLDGTGFTHDGTFQEYATADAVQAAHIPPNVNLAEVAPILCAGITVYKALKRANVIPGQWVTISGACGGLGSLAIQYALAMGYRVIGIDGGNAKRKLFEQLGGEIFIDFTEEKDIVGAIIKATNGGSHGVINVSVSEAAIEASTRYCRPNGTVVLVGMPAHAYCNSDVFNQVVKSISIVGSCVGNRADTREALDFFARGLIKSPIHLAGLSDVPEIFAKMEKGEIVGRYVVETSKKLGGGSGGGSGGGSTVAQLEEKVKTLRAQNYELKSRVQRLREQVAQLA
B2 showed a maximum electric power (alcohol fuel cell) [2] of 173 µW/cm^2 and a shortcircuit current density (alcohol fuel cell) [2] of 1620 µA/cm^2.

B3: His-sceADH-Fos (alcohol dehydrogenase derived from Saccharomyces cerevisiae, His tag, Fos association site fused at the C-terminal side) (enzyme)
chain: MGSSHHHHHHSQDPPSQVIPEKQKAIVFYETDGKLEYKDVTVPEPKPNEILVHVKYSGVCHSDLHAWHGDWPFQLKFPLIGGHEGAGVVVKLGSNVKGWKVGDFAGIKWLNGTCMSCEYCEVGNESQCPYLDGTGFTHDGTFQEYATADAVQAAHIPPNVNLAEVAPILCAGITVYKALKRANVIPGQWVTISGACGGLGSLAIQYALAMGYRVIGIDGGNAKRKLFEQLGGEIFIDFTEEKDIVGAIIKATNGGSHGVINVSVSEAAIEASTRYCRPNGTVVLVGMPAHAYCNSDVFNQVVKSISIVGSCVGNRADTREALDFFARGLIKSPIHLAGLSDVPEIFAKMEKGEIVGRYVVETSKKLGGGSGGGSLTDTLQAETDQLEDKKSALQTEIANLLKEKEKLEFILAAY
With B3 the maximum electric power (alcohol fuel cell) [3] was 80 µW/cm^2 and the shortcircuit current density (alcohol fuel cell) [3] was 821 µA/cm^2.

B4: His-busGDH-Dzip1 (glucose dehydrogenase derived from Bacillus subtilis, His tag, Dzip1 association site fused at the C-terminal side) (enzyme)
chain: MGSSHHHHHHSQDPYPDLKGKVVAITGAASGLGKAMAIRFGKEQAKVVINYYSNKQDPNEVKEEVIKAGGEAVVVQGDVTKEEDVKNIVQTAIKEFGTLDIMINNAGLENPVPSHEMPLKDWDKVIGTNLTGAFLGSREAIKYFVENDIKGNVINMSSVHEVIPWPLFVHYAASKGGIKLMTETLALEYAPKGIRVNNIGPGAINTPINAEKFADPKQKADVESMIPMGYIGEPEEIAAVAAWLASKEASYVTGITLFADGGMTQYPSFQAGRGKLGGGSGGGSGGGSTVAQLEEKVKTLRAQNYELKSRVQRLREQVAQLA
Binder B4 has a maximum electric power (fructose fuel cell) [4] of 101 µW/cm^2 and a shortcircuit current density (fructose fuel cell) [4] of 1110 µA/cm^2.

B5: His-lplLDH-Dzip1 (lactic acid dehydrogenase derived from Lactobacillus plantarum, His tag, Dzip1 association site fused at the C-terminal side) (enzyme)
chain: MGSSHHHHHHSQDPSSMPNHQKVVLVGDGAVGSSYAFAMAQQGIAEEFVIVDVVKDRTKGDALDLEDAQAFTAPKKIYSGEYSDCKDADLVVITAGAPQKPGESRLDLVNKNLNILSSIVKPVVDSGFDGIFLVAANPVDILTYATWKFSGFPKDRVIGSGTSLDSSRLRVALGKQFNVDPRSVDAYIMGEHGDSEFAAYSTATIGTRPVRDVAKEQGVSDEDLAKLEDGVRNKAYDIINLKGATFYGIGTALMRISKAILRDENAVLPVGAYMDGQYGLNDIYIGTPAVIGGTGLKQIIESPLSADELKKMQDSAATLKKVLNDGLAELENKKLGGGSGGGSGGGSTVAQLEEKVKTLRAQNYELKSRVQRLREQVAQLA
B5 showed a maximum electric power (lactic acid fuel cell) [1] of 121 µW/cm^2 and a shortcircuit current density (lactic acid fuel cell) [1] of 1330 µA/cm^2.

B6: His-pfuGDH-Fos (glucose dehydrogenase derived from Pyrococcus furiosus, His tag, Fos association site fused at the C-terminal side) (enzyme)
chain: MGSSHHHHHHSQDPNILITASSRGIGFNVAKELLKKGHRVVISSSNEKNLEKALEELKEYEKVYPIKADLSKKEEIKNMVEKAWEILGKIDVLVWNAPNVKCEPCMIHELDYEDWVEGALLHIIAPGYLTTLLLNKWLKNNTRGIIIYLSSASVLEPMPPLLLADSTRAGLIQLAKGISRAYGKRGIRAYTVLLGSFDTPGARENLRRLAEKRGVDPEELWKKEVIERTPLQRTGKWEELGELIEFLLSDNAEYMLGSTILFDGAMTRSVLLKLGGGSGGGSLTDTLQAETDQLEDKKSALQTEIANLLKEKEKLEFILAAY
B6 gave a maximum electric power (glucose fuel cell) [5] of 126 µW/cm^2 and a shortcircuit current density (glucose fuel cell) [5] of 1320 µA/cm^2.

B7: His-busGDH-Fos (glucose dehydrogenase derived from Bacillus subtilis, His tag, Fos association site fused at the C-terminal side) (enzyme)
chain: MGSSHHHHHHSQDPYPDLKGKVVAITGAASGLGKAMAIRFGKEQAKVVINYYSNKQDPNEVKEEVIKAGGEAVVVQGDVTKEEDVKNIVQTAIKEFGTLDIMINNAGLENPVPSHEMPLKDWDKVIGTNLTGAFLGSREAIKYFVENDIKGNVINMSSVHEVIPWPLFVHYAASKGGIKLMTETLALEYAPKGIRVNNIGPGAINTPINAEKFADPKQKADVESMIPMGYIGEPEEIAAVAAWLASKEASYVTGITLFADGGMTQYPSFQAGRGKLGGGSGGGSLTDTLQAETDQLEDKKSALQTEIANLLKEKEKLEFILAAY
In the case of B7, the maximum electric power (glucose fuel cell) [3] is reported as 101 µW/cm^2 and the shortcircuit current density (glucose fuel cell) [3] is reported as 988 µA/cm^2.
